Residue numbers refer to the chain shown, from its start. Names may count otherwise. “And” between values parts separate entries of the source, which are not always exact repeats. Equal values may be shown once.
B1: L1P12 E8: FABP probe, mutations 14L 38A 72G 117F 114E vs SEQ ID NO: 2 (protein, listed as Rattus norvegicus)
chain: AFDGTWKVDRNENLEKFMEKMGINVVKRKLGAHDNLKATITQEGNKFTVKESSNFRNIDVVFELGVDFAYSGADGTELTGTWTMEGNKLVGKFKRVDNGKELIAVREISGNELEQTFTYEGVEAKRIFKKE
modifications: PEPTIDE (1)...(131) wild-type rat intestinal fatty acid binding protein
B2: L5P16 H4: FABP probe, mutations 126K 73F 72A vs SEQ ID NO: 2 (protein, listed as Rattus norvegicus)
chain: B1 chain with L14Y, A38L, G72A, A73F, E114I, F117Y, R126K
modifications: PEPTIDE (1)...(131) wild-type rat intestinal fatty acid binding protein
B3: L1P5 H9: FABP probe, mutations 14M 72I 117W vs SEQ ID NO: 2 (protein, listed as Rattus norvegicus)
chain: B1 chain with L14M, A38L, G72I, E114I, F117W
modifications: PEPTIDE (1)...(131) wild-type rat intestinal fatty acid binding protein
B4: L2P22 B1: FABP probe, mutations 18Y 31V 55V 72A vs SEQ ID NO: 2 (protein, listed as Rattus norvegicus)
chain: B1 chain with L14Y, M18Y, G31V, A38L, F55V, G72A, E114I, F117Y
modifications: PEPTIDE (1)...(131) wild-type rat intestinal fatty acid binding protein
B5: L1P1 C12: FABP probe, mutations 38I 72W 117W vs SEQ ID NO: 2 (protein, listed as Rattus norvegicus)
chain: B1 chain with L14Y, A38I, G72W, E114I, F117W
modifications: PEPTIDE (1)...(131) wild-type rat intestinal fatty acid binding protein
B6: L1P1 B4: FABP probe, mutations 14I 72W 117W vs SEQ ID NO: 2 (protein, listed as Rattus norvegicus)
chain: B1 chain with L14I, A38L, G72W, E114I, F117W
modifications: PEPTIDE (1)...(131) wild-type rat intestinal fatty acid binding protein
B7: L1P14 D6: FABP probe, mutations 14M 72V 117W vs SEQ ID NO: 2 (protein, listed as Rattus norvegicus)
chain: B1 chain with L14M, A38L, G72V, E114I, F117W
modifications: PEPTIDE (1)...(131) wild-type rat intestinal fatty acid binding protein
B8: L2P2E11: FABP probe, substitutions M18I G31F vs SEQ ID NO: 2 (protein, listed as Rattus norvegicus)
chain: B1 chain with L14Y, M18I, G31F, A38L, G72L, E114I, F117Y
modifications: PEPTIDE (1)...(131) wild-type rat intestinal fatty acid binding protein
B9: L2P17H10: FABP probe, substitutions M18G G31F A73L vs SEQ ID NO: 2 (protein, listed as Rattus norvegicus)
chain: B1 chain with L14Y, M18G, G31F, A38L, G72L, A73L, E114I, F117Y
modifications: PEPTIDE (1)...(131) wild-type rat intestinal fatty acid binding protein
B10: L2P11B4: FABP probe, substitutions M18V G31A A73W vs SEQ ID NO: 2 (protein, listed as Rattus norvegicus)
chain: B1 chain with L14Y, M18V, G31A, A38L, G72L, A73W, E114I, F117Y
modifications: PEPTIDE (1)...(131) wild-type rat intestinal fatty acid binding protein
B11: L2P8A6: FABP probe, substitutions M18I G31V F55V A73V vs SEQ ID NO: 2 (protein, listed as Rattus norvegicus)
chain: B1 chain with L14Y, M18I, G31V, A38L, F55V, G72L, A73V, E114I, F117Y
modifications: PEPTIDE (1)...(131) wild-type rat intestinal fatty acid binding protein
B12: L2P22G6: FABP probe, substitutions M18I G31Y A73G vs SEQ ID NO: 2 (protein, listed as Rattus norvegicus)
chain: B1 chain with L14Y, M18I, G31Y, A38L, G72L, A73G, E114I, F117Y
modifications: PEPTIDE (1)...(131) wild-type rat intestinal fatty acid binding protein
B13: 72F (protein, listed as Rattus norvegicus)
chain: B1 chain with L14Y, A38L, G72F, E114I, F117Y
modifications: PEPTIDE (1)...(131) wild-type rat intestinal fatty acid binding protein
B14: 119M, 72A (protein, listed as Rattus norvegicus)
chain: B1 chain with L14Y, A38L, G72A, E114I, F117Y, Y119M
modifications: PEPTIDE (1)...(131) wild-type rat intestinal fatty acid binding protein
B15: 72T 73W 74G (protein, listed as Rattus norvegicus)
chain: B1 chain with L14Y, A38L, G72T, A73W, D74G, E114I, F117Y
modifications: PEPTIDE (1)...(131) wild-type rat intestinal fatty acid binding protein

experiment: Probe fluorescence intensity change with UCB:BSA; assay type: binding; details: 1:1 UCB:BSA, 440 nm

Molecule	ΔI/Io 1:1 UCB:BSA 440 nm
B1	−0.79
B2	−0.69
B3	−0.58
B4	−0.70
B5	−0.92
B6	−0.66
B7	−0.69

same assay, conditions: 1:1 UCB:BSA, 500 nm

Molecule	ΔI/Io 1:1 UCB:BSA 500 nm
B1	−0.70
B2	−0.64
B3	−0.63
B4	−0.68
B5	−0.86
B6	−0.64
B7	−0.64

same assay, conditions: 1:2 UCB:BSA, 440 nm

Molecule	ΔI/Io 1:2 UCB:BSA 440 nm
B1	−0.45
B2	−0.37
B3	−0.34
B4	−0.36
B5	−0.86
B6	−0.36
B7	−0.37

same assay, conditions: 1:2 UCB:BSA, 500 nm

Molecule	ΔI/Io 1:2 UCB:BSA 500 nm
B1	−0.39
B2	−0.31
B3	−0.34
B4	−0.35
B5	−0.79
B6	−0.35
B7	−0.33

experiment: Probe fluorescence ratio response to oleic acid relative to ADIFAB2; assay type: binding; details: Table 5
Procedure, shortened: (§1)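 Fluorescently labeled rat intestinal FABP variants were read at two emission wavelengths, near the unbound maximum (about 420 to 480 nm) and the FFA-bound maximum (about 495 to 580 nm). R = Fλ1/Fλ2 after subtracting probe-free intensity; ΔR = R+agent − R0, normalized to ADIFAB2 (rI-FABP-L72A).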

Molecule	ΔR/DRAΔ2 OA
B8	1.6
B9	1.4
B10	1.9
B11	0.4
B12	1.6

same assay, conditions: response relative to ADIFAB2

Molecule	DR/DR OA
B13	0.57 and 0.571
B14	1.191
B15	0.822

experiment: Probe fluorescence ratio response to arachidonic acid relative to ADIFAB2; assay type: binding; details: Arachidonic acid; response relative to ADIFAB2
Procedure, shortened: as §1

Molecule	DR/DR AA
B13	0.40

same assay, conditions: Table 5; Arachidonic acid

Molecule	ΔR/DRAΔ2 AA
B8	1.9
B9	1.8
B10	1.8
B11	0.6
B12	1.8

same assay, conditions: arachidonic acid; response relative to ADIFAB2

Molecule	DR/DR AA
B13	0.401
B14	1.087
B15	0.687

experiment: Probe fluorescence ratio response to palmitoleic acid relative to ADIFAB2; assay type: binding; details: Table 5
Procedure, shortened: as §1

Molecule	ΔR/DRAΔ2 POA
B8	2.6
B9	1.2
B10	3.1
B11	1.3
B12	2.6

same assay, conditions: response relative to ADIFAB2

Molecule	DR/DR POA
B15	2.770

experiment: Probe fluorescence ratio response to linolenic acid relative to ADIFAB2; assay type: binding; details: Table 5
Procedure, shortened: as §1

Molecule	ΔR/DRAΔ2 LNA
B8	2.8
B9	1.2
B10	2.8
B11	1.2
B12	2.7

same assay, conditions: response relative to ADIFAB2

Molecule	DR/DR LNA
B13	0.59 and 0.592
B14	2.280
B15	1.702

experiment: Probe fluorescence ratio response to stearic acid relative to ADIFAB2; assay type: binding; details: Table 5
Procedure, shortened: as §1

Molecule	ΔR/DRAΔ2 SA
B8	0.8
B9	1.7
B10	0.7
B11	0.2
B12	0.9

same assay, conditions: response relative to ADIFAB2

Molecule	DR/DR SA
B15	0.305

experiment: Probe fluorescence ratio response to palmitic acid relative to ADIFAB2; assay type: binding; details: Table 5
Procedure, shortened: as §1

Molecule	ΔR/DRAΔ2 PA
B8	2.0
B9	1.0
B10	2.2
B11	1.0
B12	1.9

same assay, conditions: response relative to ADIFAB2

Molecule	DR/DR PA
B13	0.46 and 0.456
B14	0.722
B15	1.817

experiment: Response profile of probe to fatty acids (Table 2); assay type: binding; details: not given

Molecule	response profile
B13	AA lowest
B14	Favors LNA
B15	SA and AA lowest

experiment: Probe fluorescence ratio response to linoleic acid relative to ADIFAB2; assay type: binding; details: Table 5
Procedure, shortened: as §1

Molecule	ΔR/DRAΔ2 LA
B8	2.5
B9	1.5
B10	2.6
B11	0.8
B12	2.6

same assay, conditions: response relative to ADIFAB2

Molecule	DR/DR LA
B13	0.61 and 0.612
B14	1.184
B15	1.348

From patent publication US20060257938A1, “Method of screening for drugs that block ligand binding to a lipid binding protein” (priority 2005, published 2006)
